In article doi:10.1101/2020.07.24.219956:

Legend:
[1] = target: Human neutrophil-derived myeloperoxidase (human) (UniProt P05164); assay: native MS
[2] = target: Human neutrophil-derived myeloperoxidase (human) (UniProt P05164); assay: mass photometry

stoichiometry N [1]: 2
Kd [2]: 0.05 nM
percent diprotomer (ααββ) [2]: 93%
percent monoprotomer (αβ) [2]: 7%
stoichiometry N [2]: 2
Substance: Human neutrophil-derived myeloperoxidase (from UniProt P05164 279-745; P05164 279-745) (enzyme)
